What was measured:
[1] = NAD(P)H-dependent glyceraldehyde 3-phosphate dehydrogenase (ND-G3PDH) activity assay; assay type: biochemical; conditions: purified histidine-tagged protein vs empty vector fractions; G3P and NAD(P)+
Procedure: NP-G3PDH activity was assayed as previously described with minor modifications (9). Briefly, reactions contained 1 mM NAD(P)+, 1 mM glyceraldehyde 3-phosphate and either […] of purified TadD or […] of crude bacterial lysate in a final volume of 1 ml. Reactions were incubated at 37° C. for one hour. Following incubation, the optical density of the reactions was measured at 340 nm. R. opacus cultures were grown in either lysogeny broth or MR medium supplemented with 4% glucose and 0.15% ammonium sulphate for 24 hours prior to mechanical disruption using a French pressure cell. Cellular debris was pelted by centrifugation at 20,000×g for 30 minutes.
Additionally, we fractionated supernatant from E. coli containing the parental plasmid which was used as an empty vector control. Fractions containing the histidine tagged TadD protein (and the corresponding fractions from the empty vector fractionation) were then used in ND-G3PDH activity assays.

purified lipid bodies [2] = assay: Lipid aggregation assay with purified lipid bodies; assay type: biochemical, R. opacus PD630
Procedure: Lipid bodies were purified from R. opacus PD630 as previously described (27) with minor modifications. Briefly, R. opacus was grown for 96 h in minimal media supplemented with 4% glucose and 0.15% ammonium sulphate. Cultures were harvested via centrifugation at 6000×g for 20 minutes. Cell pellets were resuspended in 25 ml of PBS and lysed by passing through a French pressure cell set at 18,000 psi 5 times. An equal volume of 80% glycerol was added to lysates followed by centrifugation at 6000×g for 3 h at 4° C. Following centrifugation, the upper layer (lipid body fraction) was removed to 40 ml of 40% glycerol (tube #1) and the pellet (cell debris) was resuspended in 40 ml of 40% glycerol (tube #2) followed by a second centrifugation at 6000×g for 3 h. The lipid body layer (upper layer) from tube #1 was removed to 20 ml PBS and the cell debris (pellet) from tube #2 was resuspended in 20 ml of PBS followed by centrifugation at 7500×g for 30 min. All fractions were then resuspended in 5 ml of PBS and used immediately. […] Wells were imaged using a Canon Powershot SD1200 IS digital camera (Canon, Lake Success, N.Y.). To obtain a more quantitative measure of aggregation, 2 μl of the supernatant was removed from each well and the optical density at 600 nm was determined using a Nano-Drop spectrophotometer (Thermo Scientific, Wilmington, Del.).

yeast = assay: Yeast agglutination assay; assay type: cell-based; conditions: FIG. 85
purified lipid bodies [3] = assay: Western blotting of lipid bodies from the aggregation assay; assay type: binding, R. opacus PD630; conditions: supernatant and washed lipid body fractions
[4] = Heparin-sepharose binding
Procedure: Purified TadA was diluted to a final concentration of 500 μg/ml in dialysis buffer. 100 mg of Heparin-sepharose CL-6B (GE Healthcare, Piscataway, N.J.) was resuspended in 5 ml of Tris buffer (20 mM Tris (pH7.0), 100 mM NaCl) and allowed to rehydrate with gentle agitation for 1 h. Following rehydration, the resin was pelleted via centrifugation at 1000×g for 2 minutes and subsequently washed 3 times in the same buffer. The resin was resuspended in 1 ml of Tris buffer to which 500 μg of purified TadA was added. The Sepharose-TadA slurry was incubated at 4° C. for 1 h with gentle agitation. Following incubation, the resin was pelleted, an aliquot of the supernatant was removed (flow-through fraction), the Sepharose was washed 5 times with Tris buffer and an aliquot of the supernatant from the final wash was removed (wash fraction). The remaining heparin-sepharose was resuspended in 1 ml of Tris buffer from which an aliquot was removed (beads fraction). 5× SDS-PAGE loading buffer was added to each aliquot, which were then boiled for 5 min. Samples were resolved using 10% acrylamide Ready gel Tris-HCl SDS-PAGE gels (Bio-Rad, Hercules, Calif.) and stained using colloidal coomassie as previously described (18, 31).

B1: TadD: R. opacus PD630 non-phosphorylating NAD(P)+-dependent glyceraldehyde 3-phosphate dehydrogenase homolog, SEQ ID NO:4 (protein, listed as Rhodoccus opacus)
chain: MSIAADSLSNITPPGLTIDGEITTTAAVIPVINPATESAFIEVPDAGVEQLDAAVSAARRAAKHWATHDLPFRQGIVLRLVDHVRANIDELARLVTLEQGKPLAKAAGEIESGLRGLERYASWDIPVEVIRDNDDELIEVHRAPVGVVGGITAWNYPLLLALWKIGPALITGNPIIVKPSPLTPVATLRLGELAQQILPPGVLQVLSGGDDLGRAMTAHTGIDKITFTGSERAGKSIMAGAGATLKRLTLELGGNDPGIVLDDVDVASIAADLYWGALSNCGQVCAGLKRLYVPQHLAPAIEEALAEVAKGVKVGNGLDDGVDMGPVQNAAQFTKVRGYVDDAANRGADVYFRGEVPEGPGYFHPVTLVRGVDDSVPLVREEQFGPVLPILTYTDIDDVIARANDSELALGASVWSSDEQRATEVAERVEAGTVWVNQHPMLSSDVPFGGVKQSGLGVEQSIHGVLEYTNYRVLRVKR
- NAD(P)H formation (increase in optical density at 340 nm) [1]: significantly more NAD(P)H

B2: TadA: R. opacus PD630 heparin-binding hemagglutinin homolog, SEQ ID NO:11 (protein, listed as Rhodoccus opacus)
chain: MTDQKTIDSVKTSLYAAVGAGDVVVQAVADVVAQVRSRAESTQGDVEERVGGAKERIAGLQEEVTEGVENLRDRLAGLPSELPEELAELREKFTADELRKVAEAYLKVASDLYTSLAERGEDTVERIRKQPVVEEGIGRAETAFGDAVELTEEALGTVARQTRAVGEQAAKLAGRASGRISDTAEGLGEAIADAGDEAALKVLDLGDQAEEASKDAADRVAATAADVQAQADKAAQAKHAAPAKKAAPAKAAATPAPAPAKKVAAPAKKAAPAKKA
- optical density at 600 nm of the supernatants (purified lipid bodies [2]; 2 μl supernatant from each well): decreases as protein concentration increases
- lipid body aggregation and flocculation (96 well dish) (purified lipid bodies [2]; increasing protein concentrations, 12 h room temperature): capable of inducing lipid body aggregation and subsequent flocculation in a dose-dependent manner
- size of lipid body aggregates (Nile Red fluorescent microscopy) (purified lipid bodies [2]; samples from the aggregation assay): aggregated into very large clumps
- yeast agglutination (yeast): yeast agglutination mediated by TadA
- association with lipid bodies (anti-penta-histidine Western blot) (purified lipid bodies [3]): detected in both the supernatant as well as the lipid body fractions
- binding to heparin-sepharose in the presence of pure heparin ([4]; control with pure heparin): completely abrogated any binding
- binding to heparin-sepharose (SDS-PAGE of flow through, wash, beads) ([4]; purified hexa-histidine protein): the majority of the protein was found associated with the heparin-sepharose

From US8679782B2, “Production of triacylglycerides, fatty acids, and their derivatives” (Massachusetts Institute of Technology, priority 2009, dated 2014)
